Source: patent US7026125, “Heterodimers of retinoid X receptors (RXRS) and other steroid hormone receptors” (Ligand Pharmaceuticals)

What was measured:
[1] = biological target: RARγ/RXRαm3 (UniProt P13631;P19793 P13631:1-454,P19793:28-462, RXRα N-terminal deletion of 28 aa); assay: EMSA; details: label: 32P
Description: (§1) In vitro translated receptor protein (1 to 5 μl depending on the translation efficiency) was incubated with the ^32P-labeled oligonucleotides in a 20-μl reaction mixture containing 10 mM hepes buffer, pH 7.9, 50 mM KCl, 1 mM DTT, 2.5 mM MgCl, 10% glycerol, and 1 μg of poly(dI-dC) at 25° C. for 20 minutes. In general, relative low receptor concentration was used to obtain the clear effect of heterodimer formation. The reaction mixture was then loaded on a 5% nondenaturing ployacrylamide gel containing 0.5×TBE (1×TBE=0.089 M Tris-borate, 0.089 M boric acid, and 0.002 M EDTA). To analyze the effect of RXRα or the nuclear proteins on receptor DNA binding activity, RXRα or the cell extracts were preincubated with receptor protein at room temperature for 10 minutes before performing the DNA binding assay. When antibody was used, 1 μl of the antiserum was incubated with the specific translation products at room temperature for 45 minutes before performing the experiments described above.

[2] = biological target: T1, TRα (UniProt P10827-2 P10827-2:1-410); assay: EMSA; monomer complex; 25 C, 50 mM KCl; details: label: 32P
T1 sequence: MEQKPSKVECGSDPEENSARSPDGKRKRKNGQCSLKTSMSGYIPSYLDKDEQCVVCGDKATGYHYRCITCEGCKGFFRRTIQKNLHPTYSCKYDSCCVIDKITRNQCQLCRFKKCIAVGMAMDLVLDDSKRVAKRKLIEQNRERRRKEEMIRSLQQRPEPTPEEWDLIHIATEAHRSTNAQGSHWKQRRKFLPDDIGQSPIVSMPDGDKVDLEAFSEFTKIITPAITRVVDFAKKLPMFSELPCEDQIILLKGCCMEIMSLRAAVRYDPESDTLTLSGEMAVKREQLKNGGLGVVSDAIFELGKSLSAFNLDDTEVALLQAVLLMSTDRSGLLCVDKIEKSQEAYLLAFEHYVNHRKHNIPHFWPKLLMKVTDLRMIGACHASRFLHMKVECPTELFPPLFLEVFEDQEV
Description: (a) In vitro synthesized TRα, TRβ, RARα, RARβ, RARγ and TRα2 receptor proteins were preincubated either with (+) or without (−) equal amount of in vitro synthesized RXRα protein at room temperature for 10 minutes. Following this preincubation, the reaction mixtures were incubated with ^32p-labelled palindromic TRE (for 1 sequence see FIG. 2a) and analyzed by gel retardation assay as described in Experimental Procedures. […] As a control, equal amounts of TRα and RARα proteins were also mixed and incubated with labelled TRE.
as §1, with “When antibody was used, 1 μl of the antiserum was incubated with the specific translation products at room temperature for 45 minutes before performing the experiments described above.” left out

[3] = biological target: T2, Flag-TRα (UniProt P10827-2 P10827-2:1-410); assay: EMSA; supershifted by anti-Flag; details: tags: N-terminal Flag; label: 32P
T2 sequence: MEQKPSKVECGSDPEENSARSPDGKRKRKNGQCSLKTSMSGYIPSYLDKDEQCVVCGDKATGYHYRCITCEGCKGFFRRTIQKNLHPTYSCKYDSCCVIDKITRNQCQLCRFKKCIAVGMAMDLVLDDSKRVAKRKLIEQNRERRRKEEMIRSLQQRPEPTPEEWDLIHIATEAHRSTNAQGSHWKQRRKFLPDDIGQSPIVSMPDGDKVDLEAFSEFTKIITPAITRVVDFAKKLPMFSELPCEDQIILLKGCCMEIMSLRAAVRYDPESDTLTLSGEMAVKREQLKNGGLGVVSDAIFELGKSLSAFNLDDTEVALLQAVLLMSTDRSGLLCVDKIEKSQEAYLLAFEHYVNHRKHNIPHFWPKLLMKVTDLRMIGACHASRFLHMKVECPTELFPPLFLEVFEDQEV
Description: (b) Effect of anti-Flag-TRα antibody on binding of the slow migrating complex. In vitro synthesized Flag-TRα (F-TRα) protein was incubated with in vitro synthesized RXRα protein in the presence or absence of anti-Flag antibody. The effect of antibody on DNA binding of the slow migrating complex was analyzed as described in FIG. 2a. For control, the receptor mixture was also incubated with preimmune serum (NI). The effect of anti-Flag antibody on DNA binding of Flag-RXRα, RXRα, Flag-TRα, and TRα was also analyzed. For comparison, anti-Flag antibody/Flag-RXRα-TRα interaction was run on the same gel (lanes 7–10).
In vitro translated receptor protein (1 to 5 μl depending on the translation efficiency) was incubated with the ^32P-labeled oligonucleotides in a 20-μl reaction mixture containing 10 mM hepes buffer, pH 7.9, 50 mM KCl, 1 mM DTT, 2.5 mM MgCl, 10% glycerol, and 1 μg of poly(dI-dC) at 25° C. for 20 minutes. In general, relative low receptor concentration was used to obtain the clear effect of heterodimer formation. The reaction mixture was then loaded on a 5% nondenaturing ployacrylamide gel containing 0.5×TBE (1×TBE=0.089 M Tris-borate, 0.089 M boric acid, and 0.002 M EDTA). […]

Measured: binding result

Sequence of RARγ/RXRαm3 (P13631 whole entry, stated change not applied, chain 1 of 2): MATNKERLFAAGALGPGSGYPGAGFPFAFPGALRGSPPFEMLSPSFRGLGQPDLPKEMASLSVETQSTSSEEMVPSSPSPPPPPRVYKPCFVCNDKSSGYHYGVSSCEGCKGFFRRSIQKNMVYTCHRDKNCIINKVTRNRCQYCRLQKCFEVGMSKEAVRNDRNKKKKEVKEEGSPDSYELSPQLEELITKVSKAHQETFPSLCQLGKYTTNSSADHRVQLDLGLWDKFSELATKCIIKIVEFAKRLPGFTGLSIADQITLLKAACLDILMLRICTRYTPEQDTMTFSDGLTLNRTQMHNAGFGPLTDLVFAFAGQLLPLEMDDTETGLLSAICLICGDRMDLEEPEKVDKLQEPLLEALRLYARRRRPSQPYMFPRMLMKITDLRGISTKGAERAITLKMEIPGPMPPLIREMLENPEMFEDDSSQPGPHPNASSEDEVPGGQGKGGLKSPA
Sequence of RARγ/RXRαm3 (P19793 29-462, stated change not applied, chain 2 of 2): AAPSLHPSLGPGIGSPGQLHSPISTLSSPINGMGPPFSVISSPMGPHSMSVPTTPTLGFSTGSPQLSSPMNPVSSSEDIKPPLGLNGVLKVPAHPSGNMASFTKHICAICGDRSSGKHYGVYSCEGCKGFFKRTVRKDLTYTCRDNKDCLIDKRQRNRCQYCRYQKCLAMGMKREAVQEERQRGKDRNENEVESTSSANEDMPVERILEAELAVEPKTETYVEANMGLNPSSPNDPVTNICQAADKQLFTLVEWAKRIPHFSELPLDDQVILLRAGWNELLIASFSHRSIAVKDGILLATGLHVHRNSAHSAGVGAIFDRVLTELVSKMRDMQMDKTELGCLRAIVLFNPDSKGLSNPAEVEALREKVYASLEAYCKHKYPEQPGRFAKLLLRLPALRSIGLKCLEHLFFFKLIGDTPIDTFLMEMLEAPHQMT

B1: palindromic TRE (dsDNA)
DNA 1: GATCTCAGGTCATGACCTGAGATC
DNA 2: GATCTCAGGTCATGACCTGAGATC
binds: all assays above
